The values below come from publication PMC5290278 (Nature Communications, 2017).

This assay has as its target T1, GST-NPHP4-C2^650-839 (human, UniProt O75161 650-839).
T1 construct: central C2 domain of NPHP4, residues 650-839; also called GST-N4-C2^2650-839 (as printed in the legend); GST fused to the central C2 domain of NPHP4; source: bacterially purified
T1 sequence (looked up): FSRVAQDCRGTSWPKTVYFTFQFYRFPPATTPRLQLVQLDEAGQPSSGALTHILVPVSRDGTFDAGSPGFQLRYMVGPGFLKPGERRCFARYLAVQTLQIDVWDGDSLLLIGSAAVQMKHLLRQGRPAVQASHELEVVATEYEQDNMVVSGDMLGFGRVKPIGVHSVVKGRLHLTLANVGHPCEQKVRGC
The experiment in a line: pull-down; GFP-KIF13B-C2^861-1,000 held on anti-GFP immunocomplexes, washed two times in high salt buffer (600 mM NaCl, 10 mM Tris-HCl, 0.1% NP-40); bacterially purified GST-NPHP4-C2^650-839 (500 ng/µl) added in modified EBC buffer (140 mM NaCl, 10 mM Tris-HCl, 5 mM EDTA, 0.5% NP-40); standard GFP IP. To be noted: both partners purified.

B1: GFP-KIF13B-C2^861-1,000 (domain or fragment, human, UniProt Q9NQT8 861-1000, looked up)
chain: KETQENKLVCMVKILQATGLPQHLSHFVFCKYSFWDQQEPVIVAPEVDTSSSSVSKEPHCMVVFDHCNEFSVNITEDFIEHLSEGALAIEVYGHKINDPRKNPALWDLGIIQAKTRSLRDRWSEVTRKLEFWVQILEQNE
notes: made by PCR from the GFP-KIF13B plasmid and cloned into pEGFP-C1; also called KIF13B RPGRIP1N-C2 type domain; source: HEK293T, transfected, in lysate; also immunoisolated on anti-GFP beads with high salt washes
As for B1, the binding result was “binds”.
